According to the DeepSol protein solubility set:

Experiment: soluble on expression in E. coli; label from the status in PepcDB or PDB records

Soluble on expression in E. coli, not soluble:
MGSDKIHHHHHHVSDLLSQDEIDALLHGVDDVDDDDDLDAASQDARSYDFSSQDRIVRGRMPTLEIVNERFARHLRISMFNMMRRAAEVSINGVQMLKFGEYVHTLFVPTSLNMVRFSPLKGTALITMEARLVFILVDNFFGGDGRFHAKIEGREFTPTERRIVQLLLKIIFEDYKDAWAPVMDVEFDYLDSEVNPAMANIVSPTEVVVINSFHIEVDGGGGDFHITMPYSMIEPIRELLDAGVQSDKQDTDMRWSQALHDEIMDVKVGFDACVVEHELTLKDVMNFKAGDIIPVELPEYIMMKIEDLPTYRCKMGRSRDNLALKIYEKIPRPETVKTELQLVTRKGKARDISEL
MGSDKIHHHHHHVSEKMWGCCPNHWKSFGSSCYLISTKENFWSTSEQNCVQMGAHLVVINTEAEQNFITQQLNESLSYFLGLSDPQGNGKWQWIDDTPFSQNVRFWHPHEPNLPEERCVSIVYWNPSKWGWNDVFCDSKHNSICEMKKIYL
MGSDKIHHHHHHVSENTLKPQVNKLLAALPTNDYERLIPHLKLVSLPTRQVIYEPGEPIKQVYFPQNAVVSIVTGMKDGSTVEVGIVSNEGMVGIPVILGGSTTTTKAFVQVAGSGVQIDADVLRTEFNRGGAIQNLLLRYIRATYTELTQGCACNRLHTLEERLARWLLTVSDRLESEEFPLTQEFIAQMLGVRRSGVTVAASALSRAGMISYQRGQINILNREDLEETSCECYRVIQNEFARLLKNQPKRDRR
MGSDKIHHHHHHVSKPPTIVSVPMPCGSTIEIVAPGSFHIPRVLADGGLKNYEVHSTAAALALMERSEGAFYDIGANIGVFSLCVASALRRRCHAYEPFPDAATVLDELQVRYQLPIAVHRKGVGQTAGQAQFYLSDRSDMSNSLNPNFRKHRGVLDVEVTTLEIELKRDKPAVLKIDTETTEDQVITGGLNQIAHHRPSIIVELLNEAIAGKVRKLLLPLGYRCYAIGGGLRLQELSPIETSLEGDGRNWLFSPNPLDQEFADTFNKWRGVLFSI
MGSDKIHHHHHHYLFQTYGSNKGEIIECKNCYCFKDQWNNIKNNPSINKNAKVLSCWLYYDKASPKPALKIMLINKNKFHRFQYVDAICKNDEIVLEFNGTYKNLENEFSKGISTDEFMTSLDTVWKNAHNIFKTPSSKYSLFVTSKHSNSITKQSNAFYIGKNGALTKISEKDFPLNDVNYMNCSKLDEQDKSSENACIIFK
MGSFPNFGAFILRAQEKDGRTCINGLPVASPAKQMLGRFPYLQSLQHDNLSVYLHFSETVIARDLVIVVMEHYTMNLEDILKTGNLKDESLNNNFYSEISSALDYLHTRNIVHGFLHLNSIYITDRKNQKLSVKLSGYGLPFLTNYGKDTASSIKFGAFLAPERILNDEDSLFAATYQSDVWELGFIILQIYLGISLEAEVTETEYLEILNKYYTDDQEKLSTVMEDLIQLLADKKRLPYHKKCEWLEAIIRKCLQMCCSKRCSITEVAAEIEININGVKNNNNKYEYKVKTVEEMRAAVRKEVADNNDGFEKLSVENSFYLWKTCGSTPEIILLKKGIIQNHAPISSYPTVRFDDFLRLDSGVDSQSTFEYGVFDLPSKKTLTRKETGQRVSARMFHKIGILEDKDLLNGNILYETASNMLTVDHLLNASAVFGISSIISRLTNIGVIPTQRADVWCTLLDINETKWRDYLNLDVLASHSSDRQLEVDIPRCHQYDSYMTTPAIQESLRKVLKGWQIVTESQHFVYWQGCDSLATPFLLANMSKPHVAFACFKEFTYRYCHKFYLKDNSEVIKEYLGIFYHLVAYTDPVLYKHLKINGFDAELFAIPWFLTCFAHELPLSKLVLLWDETMMHGNAFPLMIALAMLNRLRDKLLAVNFNEMIIIIHDQPDLSIDEIIKNSRGYEKLIPPSCTFRAHASPWKGTSLSLQQLSSIHCPRMSSEELIWRIERKMVYVLDTRQESEFQSERFSDSFNHPNNNHEADIDWLRFLPGIVCSELPKCFVYGKNDKEAAERLTEAYVMKGVPYICLLHDHFEAVRNRDSVVVKP
